How the values were obtained:
[1] = molecular target: Spike S2 ECD (SARS-CoV-2) (UniProt P0DTC2); test: filter; conditions: Y=Tyr-dU, p=Nap-dC
[2] = molecular target: Spike RBD-mFc (ACE2 inhibition assay) (SARS-CoV-2) (UniProt P0DTC2); test: inhibition; conditions: Y=Tyr-dU, p=Nap-dC; printed CCTTGGGAYApYAYGpGYppGAppGpYpGGApGGAGAAGG [Tyr-dU: 9,12,14,18,27; Nap-dC: 11,16,19,20,23,24,26,28,32]
Spike S1 (SARS-CoV-2) = Spike S1 (SARS-CoV-2) (UniProt P0DTC2); test: filter
Spike RBD (SARS-CoV-2) = Spike RBD (SARS-CoV-2) (UniProt P0DTC2); test: filter; conditions: P=Nap-dU
[3] = molecular target: Spike S1 & S2 ECD (SARS-CoV-2) (UniProt P0DTC2); test: filter
[4] = molecular target: authentic SARS-CoV-2 virus (VIC01, Clade B) spike (SARS-CoV-2) (UniProt P0DTC2); test: cell_activity; conditions: Y=Tyr-dU, p=Nap-dC; printed GGGAYApYAYGpGYppGAppGpYpGGApG [Tyr-dU: 5,8,10,14,23; Nap-dC: 7,12,15,16,19,20,22,24,28]
[5] = Y=Tyr-dU, p=Nap-dC, SB18T0.01, 37 C

CCTTGCAGGCGGCACATGGCACTTCATATCGAGCGGAAGG [26876-3_4 (SL1114)]
Kd ([1]; printed CCTTGpAGGpGGpApAYGGpApYYpAYAYpGAGpGGAAGG [Nap-dC: 6,10,13,15,20,22,25,30,34, Tyr-dU: 17,23,24,27,29]): 0.37 nM

CCTTGGGATACTATGCGTCCGACCGCTCGGACGGAGAAGG [26874-29_4 (SL1111)]
EC50 [2]: 4.2 nM | Kd (Spike S1 (SARS-CoV-2); Y=Tyr-dU, p=Nap-dC, printed CCTTGGGAYApYAYGpGYppGAppGpYpGGApGGAGAAGG [Tyr-dU: 9,12,14,18,27, Nap-dC: 11,16,19,20,23,24,26,28,32]): 3.2 nM

CCTTGTGCAACGCACCTTATTCGGCTTGAATGTGAGAAGG [26876-13_4 (SL1115)]
Kd ([1]; printed CCTTGYGpAApGpAppYYAYYpGGpYYGAAYGYGAGAAGG [Nap-dC: 8,11,13,15,16,22,25, Tyr-dU: 6,17,18,20,21,26,27,31,33]): 0.19 nM

GCATCATCTCCCAGCTAATGAGTGTCTGAATTGGACTGGTCCTCTGGGGA [26860-75_3 (SL1107)]
Kd (Spike RBD (SARS-CoV-2); printed GCATCAPCPCCCAGCPAAPGAGPGPCPGAAPPGGACPGGPCCPCPGGGGA [7,9,16,19,23,25,27,31,32,37,40,43,45]): 0.23 nM | Kd (Spike S1 (SARS-CoV-2); P=Nap-dU, printed GCATCAPCPCCCAGCPAAPGAGPGPCPGAAPPGGACPGGPCCPCPGGGGA [7,9,16,19,23,25,27,31,32,37,40,43,45]): 2.8 nM

GCATCGGAATGAATGTCTGCCTTGCACTGGTGCGGTCCGATTGTGAGGGA [26860-16_3 (SL1108)]
Kd (Spike RBD (SARS-CoV-2); printed GCATCGGAAPGAAPGPCPGCCPPGCACPGGPGCGGPCCGAPPGPGAGGGA [Nap-dU at 10,14,16,18,22,23,28,31,36,41,42,44]): 0.061 nM | Kd (Spike S1 (SARS-CoV-2); P=Nap-dU, printed GCATCGGAAPGAAPGPCPGCCPPGCACPGGPGCGGPCCGAPPGPGAGGGA [Nap-dU at 10,14,16,18,22,23,28,31,36,41,42,44]): 0.48 nM

GGGANANNANGNGNNNGANNGNNNGGANG [26874-29_112]
Kd ([3]; MOEdU at 14, other dU Tyr-dU, dC Nap-dC, SB18T0.01, 37 C): 0.56 nM

GGGANANNANGNGNNNGANNGNNNGGANG [26874-29_113]
Kd ([3]; 2NapdU at 14, other dU Tyr-dU, dC Nap-dC, SB18T0.01, 37 C): 0.32 nM

GGGANANNANGNGNNNGANNGNNNGGANG [26874-29_114]
Kd ([3]; MOEdU at 23, other dU Tyr-dU, dC Nap-dC, SB18T0.01, 37 C): 0.81 nM

GGGANANNANGNGNNNGANNGNNNGGANG [26874-29_115]
Kd ([3]; 2NapdU at 23, other dU Tyr-dU, dC Nap-dC, SB18T0.01, 37 C): 0.46 nM

GGGANANNANGNGNNNGANNGNNNGGANG [26874-29_116]
Kd ([3]; BTdU at 5, other dU Tyr-dU, dC Nap-dC, low plateau): 0.53 nM

GGGANANNANGNGNNNGANNGNNNGGANG [26874-29_117]
Kd ([3]; POPdU at 5, other dU Tyr-dU, dC Nap-dC, SB18T0.01, 37 C): 0.42 nM

GGGANANNANGNGNNNGANNGNNNGGANG [26874-29_118]
Kd ([3]; BTdU at 8, other dU Tyr-dU, dC Nap-dC, SB18T0.01, 37 C): 0.39 nM

GGGANANNANGNGNNNGANNGNNNGGANG [26874-29_119]
Kd ([3]; Y=Tyr-dU, p=Nap-dC, position 8 POP-dU, value curated as assigned, Kd/Kd_20 1656): 500 nM

GGGANANNANGNGNNNGANNGNNNGGANG [26874-29_120]
Kd ([3]; BTdU at 10, other dU Tyr-dU, dC Nap-dC, SB18T0.01, 37 C): 0.24 nM

GGGANANNANGNGNNNGANNGNNNGGANG [26874-29_121]
Kd ([3]; POPdU at 10, other dU Tyr-dU, dC Nap-dC, low plateau): 0.42 nM

GGGANANNANGNGNNNGANNGNNNGGANG [26874-29_122]
Kd ([3]; BTdU at 14, other dU Tyr-dU, dC Nap-dC, SB18T0.01, 37 C): 0.16 nM

GGGANANNANGNGNNNGANNGNNNGGANG [26874-29_123]
Kd ([3]; Y=Tyr-dU, p=Nap-dC, position 14 POP-dU, value curated as assigned, Kd/Kd_20 1656): 500 nM

GGGANANNANGNGNNNGANNGNNNGGANG [26874-29_124]
Kd ([3]; BTdU at 23, other dU Tyr-dU, dC Nap-dC, SB18T0.01, 37 C): 0.64 nM

GGGANANNANGNGNNNGANNGNNNGGANG [26874-29_125]
Kd ([3]; POPdU at 23, other dU Tyr-dU, dC Nap-dC, low plateau): 0.37 nM

GGGANANNANGNGNNNGANNGNNNGGANG [26874-29_126]
Kd ([3]; 2NEdU at 5, other dU Tyr-dU, dC Nap-dC, low plateau): 0.65 nM

GGGANANNANGNGNNNGANNGNNNGGANG [26874-29_128]
Kd ([3]; Y=Tyr-dU, p=Nap-dC, position 8 2NE-dU, value curated as assigned, Kd/Kd_20 1656): 500 nM

GGGANANNANGNGNNNGANNGNNNGGANG [26874-29_130]
Kd ([3]; 2NEdU at 10, other dU Tyr-dU, dC Nap-dC, SB18T0.01, 37 C): 0.28 nM

GGGANANNANGNGNNNGANNGNNNGGANG [26874-29_132]
Kd ([3]; 2NEdU at 14, other dU Tyr-dU, dC Nap-dC, SB18T0.01, 37 C): 0.27 nM

GGGANANNANGNGNNNGANNGNNNGGANG [26874-29_134]
Kd ([3]; Y=Tyr-dU, p=Nap-dC, position 23 2NE-dU, very low plateau, faint spots): 0.12 nM

GGGANANNANGNGNNNGANNGNNNGGANG [26874-29_136]
Kd ([3]; iBudU at 5, other dU Tyr-dU, dC Nap-dC, SB18T0.01, 37 C): 0.57 nM

GGGANANNANGNGNNNGANNGNNNGGANG [26874-29_138]
Kd ([3]; iBudU at 8, other dU Tyr-dU, dC Nap-dC, SB18T0.01, 37 C): 0.59 nM

GGGANANNANGNGNNNGANNGNNNGGANG [26874-29_140]
Kd ([3]; iBudU at 10, other dU Tyr-dU, dC Nap-dC, SB18T0.01, 37 C): 0.47 nM

GGGANANNANGNGNNNGANNGNNNGGANG [26874-29_142]
Kd ([3]; iBudU at 14, other dU Tyr-dU, dC Nap-dC, SB18T0.01, 37 C): 0.37 nM

GGGANANNANGNGNNNGANNGNNNGGANG [26874-29_144]
Kd ([3]; iBudU at 23, other dU Tyr-dU, dC Nap-dC, SB18T0.01, 37 C): 0.57 nM

GGGANANNANGNGNNNGANNGNNNGGANG [26874-29_146]
Kd ([3]; MBndU at 5, other dU Tyr-dU, dC Nap-dC, low plateau): 0.61 nM

GGGANANNANGNGNNNGANNGNNNGGANG [26874-29_147]
Kd ([3]; BPEdU at 5, other dU Tyr-dU, dC Nap-dC, assigned, low plateau): 0.44 nM

GGGANANNANGNGNNNGANNGNNNGGANG [26874-29_148]
Kd ([3]; MBndU at 8, other dU Tyr-dU, dC Nap-dC, low plateau): 0.46 nM

GGGANANNANGNGNNNGANNGNNNGGANG [26874-29_149]
Kd ([3]; BPEdU at 8, other dU Tyr-dU, dC Nap-dC, low plateau): 0.47 nM

GGGANANNANGNGNNNGANNGNNNGGANG [26874-29_150]
Kd ([3]; Y=Tyr-dU, p=Nap-dC, position 10 MBn-dU, Kd/Kd_20 38): 16 nM

GGGANANNANGNGNNNGANNGNNNGGANG [26874-29_151]
Kd ([3]; BPEdU at 10, other dU Tyr-dU, dC Nap-dC, SB18T0.01, 37 C): 0.78 nM

GGGANANNANGNGNNNGANNGNNNGGANG [26874-29_152]
Kd ([3]; MBndU at 14, other dU Tyr-dU, dC Nap-dC, SB18T0.01, 37 C): 0.33 nM

GGGANANNANGNGNNNGANNGNNNGGANG [26874-29_153]
Kd ([3]; Y=Tyr-dU, p=Nap-dC, position 14 BPE-dU, Kd/Kd_20 0.28): 0.11 nM

GGGANANNANGNGNNNGANNGNNNGGANG [26874-29_154]
Kd ([3]; MBndU at 23, other dU Tyr-dU, dC Nap-dC, SB18T0.01, 37 C): 0.43 nM

GGGANANNANGNGNNNGANNGNNNGGANG [26874-29_155]
Kd ([3]; BPEdU at 23, other dU Tyr-dU, dC Nap-dC, SB18T0.01, 37 C): 0.17 nM

GGGANANNANGNGNNNGANNGNNNGGANG [OH-26874-29_181]
Kd ([3]; 2Nap-dC at 7, other dC Nap-dC, dU Tyr-dU): 0.2 nM

GGGANANNANGNGNNNGANNGNNNGGANG [OH-26874-29_182]
Kd ([3]; 2Nap-dC at 12, other dC Nap-dC, dU Tyr-dU): 0.41 nM

GGGANANNANGNGNNNGANNGNNNGGANG [OH-26874-29_315]
Kd ([3]; Y=Tyr-dU, p=Nap-dC, position 12 PBn-dC, protein construct inferred): 0.16 nM

GGGANANNANGNGNNNGANNGNNNGGANG [OH-26874-29_328]
Kd ([3]; Y=Tyr-dU, p=Nap-dC, position 20 DPP-dC): 0.038 nM

GGGANANNANGNGNNNGANNGNNNGGANG [OH-26874-29_330]
Kd ([3]; Y=Tyr-dU, p=Nap-dC, position 24 DPP-dC, protein construct inferred): 0.11 nM

GGGANANNANGNGNNNGANNGNNNGGANG [OH-26874-29_331]
Kd ([3]; Y=Tyr-dU, p=Nap-dC, position 28 DPP-dC, protein construct inferred): 0.13 nM

GGGANANNANGNGNNNGANNGNNNGGANG [OH-26874-29_332]
Kd ([3]; Y=Tyr-dU, p=Nap-dC, position 7 DCPE-dC, protein construct inferred): 0.13 nM

GGGANANNANGNGNNNGANNGNNNGGANG [OH-26874-29_333]
Kd ([3]; Y=Tyr-dU, p=Nap-dC, position 12 DCPE-dC, protein construct inferred): 0.11 nM

GGGANANNANGNGNRNGANNGNNNGGANG [OH-26874-29_192]
Kd ([3]; Y=Tyr-dU, p=Nap-dC, position 15 PP-dC, protein construct inferred): 1000 nM

GGGATACTATGCGTCCGACCGCTCGGACG [26874-29_20 (SL1111_20)]
IC50 [4]: 1.1 nM

GNGNAANGNANNNNANNNGGNNNGAANGNG [26876-13_15]
Kd [3, 5]: 0.26 nM

NANNANGNGNNNGANNGNNNGGANG [26874-29_24]
Kd [3, 5]: 2.1 nM

NANNANGNGNNNGANNGNNNGGANGG [26874-29_22]
Kd [3, 5]: 1.4 nM
